From patent US5296352

Biological target: recombinant hirudin variant HV1 (Hirudo medicinalis)

| Substance | extent of digestion (cleavage of rHV1) [%] |
| --- | --- |
| Staphylococcus aureus strain V8 protease (from UniProt P0C1U8) (enzyme) | 97 |
| lysyl endopeptidase (enzyme) | 100 |
